Data on 1 molecule can be found in paper PMC8115288 (2021).

Assay [1] concerns the target T1, GST-CTD (C-terminal domain of HIV-1 integrase, aa 201-288) (HIV-1 (Hx3B), UniProt P04585 1348-1435).
T1 chain: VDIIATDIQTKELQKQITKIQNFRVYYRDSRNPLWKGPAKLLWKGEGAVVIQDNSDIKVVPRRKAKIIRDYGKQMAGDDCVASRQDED
Nature of the assay: GST-CTD 0.083 uM.

Assay [2] has as its target T1, GST-CTD (C-terminal domain of HIV-1 …). Nature of the assay: GST-CTD 0.027 uM.

B1: His6-SUMO-INI1_(183-304) (domain or fragment)
chain: PEVLVPIRLDMEIDGQKLRDAFTWNMNEKLMTPEMFSEILCDDLDLNPLTFVPAIASAIRQQIESYPTDSILEDQSDQRVIIKLNIHVGNISLVDQFEWDMSEKENSPEKFALKLCSELGLG
The term Kd denotes the constant that tells how readily two partners part at equilibrium. Higher therefore signals a looser complex. Regarding B1, the Kd in assay [1] came to 3 nM; in assay [2], 3.5 nM.
